According to patent US20220290200A1, “GENETICALLY MODIFIED HOST CELLS PRODUCING GLYCOSYLATED CANNABINOIDS” (OCTARINE BIO IVS, priority 2019, published 2022):

B1: PL-28(At72B1_GA) (protein, UniProt Q9M156 1-480, looked up)
UDP-glycosyltransferase 72B1: MEESKTPHVAIIPSPGMGHLIPLVEFAKRLVHLHGLTVTFVIAGEGPPSKAQRTVLDSLPSSISSVFLPPVDLTDLSSSTRIESRISLTVTRSNPELRKVFDSFVEGGRLPTALVVDLFGTDAFDVAVEFHVPPYIFYPTTANVLSFFLHLPKLDETVSCEFRELTEPLMLPGCVPVAGKDFLDPAQDRKDDAYKWLLHNTKRYKEAEGILVNTFFELEPNAIKALQEPGLDKPPVYPVGPLVNIGKQEAKQTEESECLKWLDNQPLGSVLYVSFGSGGTLTCEQLNELALGLADSEQRFLWVIRSPSGIANSSYFDSHSQTDPLTFLPPGFLERTKKRGFVIPFWAPQAQVLAHPSTGGFLTHCGWNSTLESVVSGIPLIAWPLYAEQKMNAVLLSEDIRAALRPRAGDDGLVRREEVARVVKGLMEGEEGKGVRNKMKELKEAACRVLKDDGTSTKALSLVALKWKAHKKELEQNGNH
B2: PL-214(Cs73Y_GA) (protein)
chain: MGSEGRQLHIFMFPFMAHGHMIPIVDMAKLFASRGIKITIVTTPLNSISISKSLHNCSPNSLIQLLILKFPAAEAGLPDGCENADSIPSMDLLPKFFEAVSLLQPPFEEALHNNRPDCLISDMFFPWTNDVADRVGIPRLIFHGTSCFSLCSSEFMRLHKPYQHVSSDTEPFTIPYLPGDIKLTKMKLPIFVRENSENEFSKFITKVKESESFCYGVVVNSFYELEAEYVDCYKDVLGRKTWTIGPLSLTNTKTQEITLRGRESAIDEHECLKWLDSQKPNSVVYVCFGSLAKFNSAQLKEIAIGLEASGKKFIWVVRKGKGEEEEEEQNWLPEGYEERMEGTGLIIRGWAPQVLILDHPSVGGFVTHCGWNSTLEGVAAGVPMVTWPVGAEQFYNEKLVTEVLKTGVGVGVQKWAPGVGDFIESEAVEKAIRRIMEKEGEEMRNRAIELGKKAKWAVGEEGSSYSNLDALIEELKSLAF
B3: PL-182(Ha88B_2_GA) (protein)
chain: MESSTVVMYPSPGIGHLVSMVELGKLIHTHHPSLSVIILILTAPYETGATGKYINTVSATTPAITFHHLPAIALPPDFSSEFIDLAFGLPELYNSVVHNTLVAISQKSTIKAVILDFFSNAAFQVSTNLSLPTYYFFTSGTFGLCAFLYLTTLHKTTSKSIKDLNTLLDFPGVPPIHSSHMPTAIFDRESNSYKNFMKTSNNMAKCSGIIVNSFLELEERAVATLRDGKCITDGPTPPIYFIGPLIASGSQVDPNENECLKWLKTQPSKSVVFLCFGSMGVFEKEQLKEIAVGLERSGQRFLWVVRNPPLESSSGAKEFELDDILPEGFLTRTKDKGLVVKNWAPQPAILGHESVGGFVSHCGWNSSLEAVVSGVPMVAWPLYAEQQMNRVYLVEEIKVALWLRMSADGFVGAEAVEETVRKLMEGEEGRAVREQILEMSGGAKAAVEDGGSSRLDFLKLTRPWTDQ

Experiments:
[1] = In vitro enzymatic cascade converting sucrose and CBD to CBD glycosides; assay type: biochemical; conditions: enzymes added: GmSuSy
Description: In the previous examples, in vitro glycosyl transferase assays required the addition of an “activated” sugar (e.g. UDP-glucose), which is typically an extremely expensive reagent, furthermore, other activated sugars e.g. UDP-rhamnose are not available commercially and must be custom synthesized at high-cost and difficulty. […] To facilitate the low-cost production of cannabinoid glycosides not only with glucose, but with alternative sugars, an enzymatic cascade was set up to convert cannabinoids and the simple sugar sucrose into various cannabinoid glycosides. The cascade is divided into 3 steps, in step 1 sucrose and uridine diphosphate (UDP) is converted to UDP-glucose by GmSuSy (SEQ ID NO: 209, 210), additionally generating fructose as a bi-product. In step 2, UDP-glucose is interconverted to alternative UDP-sugars using a range of enzymes. For example, conversion of UDP-glucose to UDP-galactose by BsGa/E, multiple enzymes can also be used to produce UDP-sugars via other UDP-sugar intermediates. For example, conversion of UDP-glucose to UDP-glucuronic acid by AtUGDH1 combined with conversion of UDP-glucuronic acid to UDP-xylose by AtUXS3. In step 3, glycosyl transferases convert the activated sugar and a cannabinoid acceptor to the corresponding cannabinoid glycoside. For example, conversion of UDP-rhamnose and CBD to CBD-1′-O-β-D-rhamnoside (OB13) by Cs73Y (SEQ ID NO: 157, 158).
Enzymes were purified and the in vitro assay performed as described in Example 13 and the reaction mixture set up as shown in table 57. Enzymes and co-factors were added as required for each individual reaction. Samples were extracted and analyzed as stated above.

[2] = In vitro glycosyl transferase performance, purified enzymes, % conversion of cannabinoids to cannabinoid glycosides; assay type: biochemical; conditions: for Conversion % (CBD to the glycoside): acceptor CBD; for % conversion of CBDV to OB24 (CBDV-1′-O-β-D-glucoside): Table 33; for % conversion, 11-nor-9-carboxy-THC to OB41 (11-nor-9-carboxy-THC-1′-O-β-D-glucoside): substrate 11-nor-9-carboxy-THC, product OB41; for % conversion of CBD to OB9 (CBD-1′-O-β-D-xyloside): Table 26; for % conversion of CBDA to OB31 (CBDA-1′-O-β-D-glucoside): Table 37; for % conversion, CBG to OB33 (CBG-1′-O-β-D-glucosyl-3′-O-β-D-glucoside): product OB33; for % conversion, CBN to OB23 (CBN-1′-O-β-D-di-glucoside): substrate CBN, product OB23; for % conversion, THC to OB20 (THC-1′-O-β-D-glucoside): substrate THC, product OB20
Procedure: For in vitro studies of glycosyl transferase performance in glycosylating cannabinoids, purified Glycosyl transferases were prepared as follows:
5 mL of 2× concentrated LB medium+Ampicillin (50 μg/m L) was inoculated with E. coli XJb (DE3) strains expressing a glycosyl transferase of interest and incubated overnight at 30° C. with shaking. The following day, cell cultures were transferred into 500 mL of 2× concentrated LB medium+Ampicillin (50 μg/mL) and incubated overnight at 30° C. with shaking. The following day, the cell cultures were transferred to 1 L of 2× concentrated LB medium+Ampicillin (50 μg/mL)+3 mM arabinose+0.1 mM IPTG. Cells were incubated for 24 h at 20° C. with shaking. The following day, the cells were collected by centrifugation at 46500×g for 10 mins at 4° C. Cells were resuspended in 20 mL ice-cold GT buffer (50 mM Tris-HCl pH7.4+1 mM phenylmethanesulfonyl fluoride+1 cOmplete™, mini, EDTA-free Protease Inhibitor Cocktail tablet (Roche)). The resuspended material was transferred to a 50 mL falcon tube and kept at −80° C. for at least 15 mins. Falcon tubes were then thawed at room temperature, as the tubes were thawing the following reagents were added; 2.6 mM MgCl2, 1 mM CaCl2, 250 μL of a 1.4 mg/ml DNase solution (Sigma) dissolved in MilliQ water. Tubes were gently inverted to mix then were incubated for 5 mins at 37° C. Binding buffer was then added to the tubes (50 mM Tris-HCl pH7.4, 10 mM imidazole, 500 mM NaCl. 11.25 mL MilliQ water) and the pH adjusted to 7.4 with HCl. The mix was centrifuged at 15550×g for 15 mins at 4° C., the supernatant transferred to a fresh 50 mL falcon tubes and centrifuged again to remove any remaining cellular debris at 48400×g for 20 minutes at 4° C. While the enzyme prep was centrifuging, 3 mL of HIS-Select (available from Sigma P6611) column material was added to a fresh 50 mL tube and washed by adding MilliQ water up to 50 mL, centrifuging at 2000×g for 2 mins and discarding the supernatant. This washing step was repeated. Finally, MilliQ water was added to the HIS-Select material to an approximate 50% volume. Collected supernatant from the centrifuged enzyme preparation was transferred to the tube containing the HIS-Select material through a Miracloth (available from Merck Millipore), and then incubated at 4° C. with gently shaking by inversion for 2 h. After 2 h the mix was centrifuged at 2000×g for 4 minutes at 4° C. and the supernatant discarded. The remaining HIS-Select material was washed twice with 1× binding buffer (50 mM Tris-HCl, 0.5M NaCl, 10 mM Imidazole, pH 7.4) with centrifugation at 2000×g for 4 minutes at 4° C. The HIS-Select material was resuspended in 5 mL 1× binding buffer and transferred to a Poly-Prep®Chromatography Column (available from BioRad, 7311550). The HIS-Select material was kept at 4° C. and washed twice with 1× binding buffer by filling up the column and allowing it to drip through. Finally, purified Glycosyl transferases were eluted from the HIS-Select material by adding 7.5 mL of elution buffer (50 mM Tris-HCl, 500 mM Imidazole, pH7.4) and collecting the flow through. Enzymes were used immediately in in vitro enzyme assays or stored at −20° C. in 50% glycerol until needed.
In vitro conversion of various cannabinoids to cannabinoid glycosides was carried out according to table 21. Alkaline phosphatase was provided by New England Biolabs (M0371S). Cannabinoids were dissolved in methanol. The UDP-sugar (e.g. UDP-glucose) was provided by a commercial supplier (e.g. Sigma) or produced by in vitro enzymatic conversion from a commercially available UDP-sugar as shown in Example 21.
The reaction mixture was scaled up or down as required. The reaction mixture was incubated without shaking at 30° C. for 24 hours. Extraction and analysis were performed as described above for this example. […]

[3] = substrate CBG, glycosyl transferase in vitro

Molecule | % conversion of CBDV to OB24 (CBDV-1′-O-β-D-glucoside) ([2]; glycosyl transferase in vitro) [%] | % conversion, 11-nor-9-carboxy-THC to OB41 (11-nor-9-carboxy-THC-1′-O-β-D-glucoside) ([2]; glycosyl transferase in vitro) [%] | % conversion of CBD to OB9 (CBD-1′-O-β-D-xyloside) ([2]; glycosyl transferase in vitro) [%] | % conversion of CBDA to OB31 (CBDA-1′-O-β-D-glucoside) ([2]; glycosyl transferase in vitro) [%] | % conversion, CBG to OB33 (CBG-1′-O-β-D-glucosyl-3′-O-β-D-glucoside) [2, 3] [%] | % conversion, CBN to OB23 (CBN-1′-O-β-D-di-glucoside) ([2]; glycosyl transferase in vitro) [%] | % conversion, THC to OB20 (THC-1′-O-β-D-glucoside) ([2]; glycosyl transferase in vitro) [%] | further results
C=C(C)[C@@H]1CCC(C)=C[C@H]1c1c(O[C@@H]2OC[C@@H](O)[C@H](O)[C@H]2O)cc(CCCCC)cc1O[C@@H]1OC[C@@H](O)[C@H](O)[C@H]1O [OB10, CBD-1′-O-β-D-xylosyl-3′-O-β-D-xyloside] |  |  |  |  |  |  |  | % Conversion of CBD and sucrose to CBD glycoside ([1]; AtUGDH1, AtUXS3, Cs73Y): 72.3%; Conversion % (CBD to the glycoside) ([2]; UDP-Xylose, enzyme PL-214(Cs73Y_GA)): 97.4%
C=C(C)C1CCC(C)=CC1c1c(O)cc(CCCCC)cc1OC1OC(C)C(O)C(O)C1O [OB13, CBD-1′-O-α-L-rhamnoside] |  |  |  |  |  |  |  | % Conversion of CBD and sucrose to CBD glycoside ([1]; AtRHM2, Cs73Y): 15.2%; Conversion % (CBD to the glycoside) ([2]; UDP-Rhamnose, enzyme PL-342(Cp73B_GA)): 5.7%
B1 | 9.9 | 0.9 |  |  |  |  |  | 
B2 |  | 2.0 | 6.9 | 98.6 | 100.0 | 98.6 | 29.5 | % conversion of CBD to OB13 (CBD-1′-O-α-L- rhamnoside) ([2]; glycosyl transferase in vitro, Table 25): 4.4%; % conversion of CBD to OB6 (CBD-1′-O-β-D-glucosyl-3′-O-β-D-glucoside) ([2]; glycosyl transferase in vitro, Table 27): 95.8%; % conversion of CBD to OB10 (CBD-1′-O-β-D-xylosyl-3′-O-β-D-xyloside) ([2]; glycosyl transferase in vitro, Table 28): 98.5%; % conversion of CBD to OB7 (CBD-1′-O-β-D-tri-glucoside) ([2]; glycosyl transferase in vitro, Table 29): 27.3%; % conversion of CBD to OB8 (CBD-1′-O-β-D-glucosyl-3′-O-β-D-di-glucoside) ([2]; glycosyl transferase in vitro, Table 30): 12.3%; % conversion of CBDV to OB25 (CBDV-1′-O-β-O-glucosyl-3′-O-β-D-glucoside) ([2]; glycosyl transferase in vitro, Table 34): 91.0%
B3 | 89.0 |  | 9.6 | 15.5 | 26.5 | 68.0 | 80.3 | % conversion of CBD to OB1 (CBD-1′-O-β-D-glucoside) ([2]; glycosyl transferase in vitro, Table 24): 50.0%; % conversion, CBG to OB32 (CBG-1′-O-β-D-glucoside) ([2]; substrate CBG, product OB32, glycosyl transferase in vitro): 82.9%
